Consider 1 variant from IntAct's records for PubMed 22089237.

Sequences and labels used below:
B1: Alpha-1A adrenergic receptor (Homo sapiens), P35348 (parent)
chain: MVFLSGNASDSSNCTQPPAPVNISKAILLGVILGGLILFGVLGNILVILSVACHRHLHSVTHYYIVNLAVADLLLTSTVLPFSAIFEVLGYWAFGRVFCNIWAAVDVLCCTASIMGLCIISIDRYIGVSYPLRYPTIVTQRRGLMALLCVWALSLVISIGPLFGWRQPAPEDETICQINEEPGYVLFSALGSFYLPLAIILVMYCRVYVVAKRESRGLKSGLKTDKSDSEQVTLRIHRKNAPAGGSGMASAKTKTHFSVRLLKFSREKKAAKTLGIVVGCFVLCWLPFFLVMPIGSFFPDFKPSETVFKIVFWLGYLNSCINPIIYPCSSQEFKKAFQNVLRIQCLCRKQSSKHALGYTLHPPSQAVEGQHKDMVRIPVGSRETFYRISKTDGVCEWKFFSSMPRGSARITVSKDQSSCTTARVRSKSFLQVCCCVGPSTPSLDKNHQVPTIKVHTISLSENGEEV

The variants in this assay derive from B1. Particulars: with arrb1_rat Arrb1, P29066.
Chain of arrb1_rat Arrb1, P29066 (P29066 whole entry): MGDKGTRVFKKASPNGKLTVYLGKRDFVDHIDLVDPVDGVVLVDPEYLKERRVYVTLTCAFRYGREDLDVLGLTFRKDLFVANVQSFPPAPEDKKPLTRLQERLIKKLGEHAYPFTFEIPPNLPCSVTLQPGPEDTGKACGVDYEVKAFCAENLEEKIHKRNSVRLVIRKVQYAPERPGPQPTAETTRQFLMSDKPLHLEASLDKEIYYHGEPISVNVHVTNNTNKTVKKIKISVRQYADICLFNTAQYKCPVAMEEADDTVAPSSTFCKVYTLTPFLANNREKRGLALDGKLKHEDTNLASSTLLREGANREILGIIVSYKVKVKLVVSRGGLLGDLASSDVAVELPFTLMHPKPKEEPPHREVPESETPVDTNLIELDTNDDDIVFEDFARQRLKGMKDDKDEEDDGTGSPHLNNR
On to MVFLSGNASDSSNCTQPPAPVNISKAILLGVILGGLILFGVLGNILVILSVACHRHLHSVTHYYIVNLAVADLLLTSTVLPFSAIFEVLGYWAFGRVFCNIWAAVDVLCCTASIMGLCIISIDRYIGVSYPLRYPTIVTQRRGLMALLCVWALSLVISIGPLFGWRQPAPEDETICQINEEPGYVLFSALGSFYLPLAIILVMYCRVYVVAKRESRGLKSGLKTDKSDSEQVTLRIHRKNAPAGGSRMASAKTKTHFSVRLLKFSREKKAAKTLGIVVGCFVLCWLPFFLVMPIGSFFPDFKPSETVFKIVFWLGYLNSCINPIIYPCSSQEFKKAFQNVLRIQCLCRKQSSKHALGYTLHPPSQAVEGQHKDMVRIPVGSRETFYRISKTDGVCEWKFFSSMPRGSARITVSKDQSSCTTARVRSKSFLQVCCCVGPSTPSLDKNHQVPTIKVHTISLSENGEEV [G247R], for which the “effect of a mutation on the interaction” value was “increasing interaction strength”.
